# Experimental data: patent CN113234160A (GUANGZHOU EXCELMAB BIOMEDICAL TECH CO LTD, dated 2021)
# B1: hmp12 (antibody, V domains shown)
# VH: EVQLVESGGGLVKPGGSLRLSCAASGFTFSSYDMSWVRQAPGKGLEWVATISGGGSYTYYADSVKGRFTISRDNAKNSLYLQMNSLRAEDTALYYCASPYAGYFDVWGQGTMVTVSS
# VL: DIQMTQSPSSLSASVGDRVTITCSASSSISSNYLHWYQQKPGKAPKLLIYRTSNLQSGVPARFSGSGSGTSYSLTISSLQPEDFATYYCQQGSSIPLTFGQGTKLEIK
# notes: also called 人源化抗体hmp12
# What was measured:
# [1] = molecular target: T1, 人PD-1抗原 on Jurkat/PD-1 cells (human, UniProt Q15116 25-288); assay: indirect flow cytometry on Jurkat/PD-1 cells
# T1 construct: whole, on cells; Used for the flow cytometry cells and for the Jurkat reporter cells that carry PD-1; also called 过表达人PD-1抗原的Jurkat细胞; Jurkat/hPD-1 NFAT-Luciferase
# [2] = molecular target: T2, 人PD-1抗原 (ACRO, Cat.PD-1-H5221) (human, UniProt Q15116 25-167); assay: indirect ELISA, human PD-1 coated
# T2 construct: Bought antigen coated on ELISA plates; also called human PD-1 antigen; hPD-1
# T2 sequence (Q15116 25-167 limits assumed): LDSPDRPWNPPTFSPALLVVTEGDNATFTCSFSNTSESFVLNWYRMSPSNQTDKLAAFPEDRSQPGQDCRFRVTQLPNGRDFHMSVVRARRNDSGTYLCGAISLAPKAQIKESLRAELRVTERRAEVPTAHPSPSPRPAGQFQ
# T1 sequence (Q15116 25-288): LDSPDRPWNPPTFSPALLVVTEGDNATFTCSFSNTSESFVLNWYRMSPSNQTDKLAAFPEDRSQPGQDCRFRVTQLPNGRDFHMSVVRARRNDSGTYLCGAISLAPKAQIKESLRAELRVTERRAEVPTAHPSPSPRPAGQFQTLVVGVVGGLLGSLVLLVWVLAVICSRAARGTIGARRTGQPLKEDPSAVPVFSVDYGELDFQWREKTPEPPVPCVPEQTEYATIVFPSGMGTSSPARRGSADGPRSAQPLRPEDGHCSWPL
binder,measurement,setting,value
B1,binding result,[1],binds
same,binding result,[2],binds
